These are literature values, as cited in PMC10839879.

The series deals with RNH1 (Homo sapiens) (UniProt P13489).
Sequence of UniProt P13489 (P13489 2-461): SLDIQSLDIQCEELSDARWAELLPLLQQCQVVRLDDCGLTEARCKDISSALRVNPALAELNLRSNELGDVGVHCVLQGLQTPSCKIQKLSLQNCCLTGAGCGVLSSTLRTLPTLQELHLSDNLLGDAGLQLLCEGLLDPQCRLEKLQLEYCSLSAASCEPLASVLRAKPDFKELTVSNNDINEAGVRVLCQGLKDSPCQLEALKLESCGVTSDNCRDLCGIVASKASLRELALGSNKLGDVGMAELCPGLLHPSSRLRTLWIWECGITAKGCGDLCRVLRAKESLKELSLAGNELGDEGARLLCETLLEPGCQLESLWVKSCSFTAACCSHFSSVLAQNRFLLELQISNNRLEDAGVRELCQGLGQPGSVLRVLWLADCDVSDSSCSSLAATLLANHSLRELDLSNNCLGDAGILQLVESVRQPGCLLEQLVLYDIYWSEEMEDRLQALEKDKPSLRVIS

As usually defined, the Kd is the equilibrium constant for the complex coming apart. On to angiogenin (from UniProt P03950), for which the Kd was 0.001 pM.
